According to patent US20080254026A1 (published 2008):
One block for each binder: values may come before it.

Assays:
[1] = target: T1, CD40 extracellular Domain 2 GST fusion protein (human, UniProt P25942 61-104); experiment: western blot of CD40 Domain 2, reduced
T1 construct: Expressed in insect cells with a GP67 secretion signal; not shown: glutathione S-transferase (GST) fusion partner
T1 chain: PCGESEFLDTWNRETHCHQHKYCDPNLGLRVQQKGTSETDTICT

[2] = target: T2, CD40 extracellular Domain 3 GST fusion protein (human, UniProt P25942 104-144); experiment: western blot of CD40 domain GST fusion proteins
T2 construct: Expressed in insect cells with a GP67 secretion signal; not shown: glutathione S-transferase (GST) fusion partner
T2 chain: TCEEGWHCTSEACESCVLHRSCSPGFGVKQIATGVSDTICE
Procedure: (§1) To map the antigenic region on CD40, the four extracellular domains of CD40 were cloned and expressed in insect cells as GST fusion proteins. The secretion of the four domains was ensured with a GP67 secretion signal. Insect cell supernatant was analyzed by SDS-PAGE and western blot analysis to identify the domain containing the epitope.

[3] = target: T3, CD40 extracellular Domain 4 GST fusion protein (human, UniProt P25942 145-187); experiment: western blot of CD40 domain GST fusion proteins
T3 construct: Expressed in insect cells with a GP67 secretion signal; not shown: glutathione S-transferase (GST) fusion partner
T3 chain: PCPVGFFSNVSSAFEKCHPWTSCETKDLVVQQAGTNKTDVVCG
Procedure: as §1

[4] = target: T4, CD40 extracellular Domain 1 GST fusion protein (human); experiment: western blot of CD40 domain GST fusion proteins
T4 construct: Expressed in insect cells with a GP67 secretion signal; not shown: glutathione S-transferase (GST) fusion partner
T4 chain: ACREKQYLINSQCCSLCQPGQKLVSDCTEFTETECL
Procedure: as §1

[5] = target: T5, Recombinant soluble CD40-his (human, UniProt P25942 21-193); experiment: Biacore
T5 construct: Analyte in the Biacore experiments; not shown: his tag
T5 sequence (P25942 21-193 limits assumed): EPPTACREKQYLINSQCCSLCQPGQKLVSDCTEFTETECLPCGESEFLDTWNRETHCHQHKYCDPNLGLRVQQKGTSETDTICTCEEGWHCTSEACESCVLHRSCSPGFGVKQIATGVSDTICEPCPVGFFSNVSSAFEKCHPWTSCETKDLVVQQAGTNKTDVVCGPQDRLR
Procedure: (§2) Protein A was immobilized onto CM5 biosensor chips via amine coupling. Human anti-CD40 monoclonal antibodies, at 1.5 μg/ml, were captured onto the modified biosensor surface for 1.5 minutes at 10 μl/min. Recombinant soluble CD40-his was flowed over the biosensor surface at varying concentrations. Antibody and antigen were diluted in 0.01 M HEPES pH 7.4, 0.15 M NaCl, 3 mM EDTA, 0.005% Surfactant P20 (HBS-EP). Kinetic and affinity constants were determined using the Biaevaluation software with a 1:1 interaction model/global fit.

[6] = target: T6, CD40 extracellular Domain 2 GST fusion protein (human, UniProt P25942 61-104); experiment: Western blot of GST domain fusions
T6 construct: Expressed in insect cells with a GP67 secretion signal; not shown: GST fusion partner
T6 chain: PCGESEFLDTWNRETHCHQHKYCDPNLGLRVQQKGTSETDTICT

[7] = target: T7, SPOTs peptide, spot 20 (HKYCDPNLGL) (human); experiment: SPOTs peptide membrane, stripped and reprobed
T7 peptide: HKYCDPNLGL
Source text: (§3) SPOTs membranes (Sigma) containing thirty-five 10 mer peptides with a 1-amino-acid offset were generated.

[8] = target: T8, SPOTs peptide, spot 21 (KYCDPNLGLR) (human); experiment: SPOTs peptide membrane, stripped and reprobed
T8 peptide: KYCDPNLGLR
Source text: as §3

[9] = target: T9, SPOTs peptide, spot 22 (YCDPNLGLRV) (human); experiment: SPOTs peptide membrane, stripped and reprobed
T9 peptide: YCDPNLGLRV
Source text: as §3

[10] = target: T10, CD40 extracellular Domain 1 GST fusion protein (human); experiment: SDS-PAGE and Western blot of insect cell supernatant with GST domain fusions
T10 construct: Expressed in insect cells with a GP67 secretion signal; not shown: GST fusion partner
T10 chain: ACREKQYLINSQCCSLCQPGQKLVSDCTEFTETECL
Procedure: as §1

[11] = target: T11, CD40 extracellular Domain 3 GST fusion protein (human, UniProt P25942 104-144); experiment: as above
T11 construct: not shown: GST fusion partner
T11 chain: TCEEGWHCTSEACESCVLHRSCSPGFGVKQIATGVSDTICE
Procedure: as §1

[12] = target: T12, CD40 extracellular Domain 4 GST fusion protein (human, UniProt P25942 145-187); experiment: as above
T12 construct: not shown: GST fusion partner
T12 chain: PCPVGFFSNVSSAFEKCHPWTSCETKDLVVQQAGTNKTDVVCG
Procedure: as §1

[13] = target: T5, Recombinant soluble CD40-his; experiment: Biacore, antibody captured on protein A CM5 chip, CD40-his as analyte, 1:1 model/global fit
Procedure: as §2

[14] = target: T13, CD40 Domain 2 10-mer peptide HKYCDPNLGL (spot 20) (human); experiment: SPOTs membrane of 10-mer peptides, spot 20 listed as recognised
T13 construct: Synthetic 10-mer on a SPOTs membrane (Sigma)
T13 peptide: HKYCDPNLGL
Source text: as §3

[15] = target: T14, CD40 Domain 2 10-mer peptide KYCDPNLGLR (spot 21) (human); experiment: SPOTs membrane of 10-mer peptides, spot 21 listed as recognised
T14 construct: Synthetic 10-mer on a SPOTs membrane (Sigma)
T14 peptide: KYCDPNLGLR
Source text: as §3

[16] = target: T15, CD40 Domain 2 10-mer peptide YCDPNLGLRV (spot 22) (human); experiment: SPOTs membrane of 10-mer peptides, spot 22 listed as recognised
T15 construct: Synthetic 10-mer on a SPOTs membrane (Sigma)
T15 peptide: YCDPNLGLRV
Source text: as §3

[17] = target: human CD40 on normal human B cells (PBMC or purified B cells) (human, UniProt P25942 20-277); experiment: cell-based or functional assay
Sequence of human CD40 on normal human B cells (PBMC or purified B cells) (P25942 20-277): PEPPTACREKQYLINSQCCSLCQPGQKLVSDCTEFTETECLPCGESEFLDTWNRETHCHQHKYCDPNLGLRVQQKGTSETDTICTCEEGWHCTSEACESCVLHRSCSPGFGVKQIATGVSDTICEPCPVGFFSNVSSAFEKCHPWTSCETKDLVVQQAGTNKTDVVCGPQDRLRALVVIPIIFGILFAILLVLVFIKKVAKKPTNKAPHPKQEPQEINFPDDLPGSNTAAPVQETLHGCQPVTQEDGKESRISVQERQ

[18] = target: human CD40 antigen expressed on the surface of cells (human, UniProt P25942 20-277); experiment: cell-based or functional assay
Sequence of human CD40 antigen expressed on the surface of cells (P25942 20-277): as above

[19] = target: T16, SPOTs peptide, spot 18 (HQHKYCDPNL) (human); experiment: SPOTs peptide membrane, antibody at 10 µg/ml
T16 peptide: HQHKYCDPNL
Source text: as §3

[20] = target: T17, SPOTs peptide, spot 19 (QHKYCDPNLG) (human); experiment: SPOTs peptide membrane, antibody at 10 µg/ml
T17 peptide: QHKYCDPNLG
Source text: as §3

[21] = target: T7, SPOTs peptide, spot 20 (HKYCDPNLGL); experiment: SPOTs peptide membrane, antibody at 10 µg/ml
Source text: as §3

[22] = target: T8, SPOTs peptide, spot 21 (KYCDPNLGLR); experiment: SPOTs peptide membrane, antibody at 10 µg/ml
Source text: as §3

[23] = target: T9, SPOTs peptide, spot 22 (YCDPNLGLRV); experiment: SPOTs peptide membrane, antibody at 10 µg/ml
Source text: as §3

[24] = target: T1, CD40 extracellular Domain 2 GST fusion …; experiment: western blot of CD40 domain GST fusion proteins (Domain 2)
Procedure: as §1

[25] = target: T18, CD40 Domain 2 SPOTs peptide, spot 18 (HQHKYCDPNL) (human); experiment: SPOTs membrane of 10mer peptides of CD40 Domain 2; spot 18 listed among the results
T18 construct: 10mer synthesized on a SPOTs membrane; also called Spot Number 18
T18 peptide: HQHKYCDPNL
Source text: as §3

[26] = target: T19, CD40 Domain 2 SPOTs peptide, spot 19 (QHKYCDPNLG) (human); experiment: SPOTs membrane of 10mer peptides of CD40 Domain 2; spot 19 listed among the results
T19 construct: 10mer synthesized on a SPOTs membrane; also called Spot Number 19
T19 peptide: QHKYCDPNLG
Source text: as §3

[27] = target: T20, CD40 Domain 2 SPOTs peptide, spot 20 (HKYCDPNLGL) (human); experiment: SPOTs membrane of 10mer peptides of CD40 Domain 2; spot 20 listed among the results
T20 construct: 10mer synthesized on a SPOTs membrane; also called Spot Number 20
T20 peptide: HKYCDPNLGL
Source text: as §3

[28] = target: T21, CD40 Domain 2 SPOTs peptide, spot 21 (KYCDPNLGLR) (human); experiment: SPOTs membrane of 10mer peptides of CD40 Domain 2; spot 21 listed among the results
T21 construct: 10mer synthesized on a SPOTs membrane; also called Spot Number 21
T21 peptide: KYCDPNLGLR
Source text: as §3

[29] = target: T22, CD40 Domain 2 SPOTs peptide, spot 22 (YCDPNLGLRV) (human); experiment: SPOTs membrane of 10mer peptides of CD40 Domain 2; spot 22 listed among the results
T22 construct: 10mer synthesized on a SPOTs membrane; also called Spot Number 22
T22 peptide: YCDPNLGLRV
Source text: as §3

binding result [1]: binds | binding result [2]: no binding | binding result [3]: no binding | binding result [4]: no binding
B1: monoclonal antibody CHIR-5.9 (antibody, human IgG1, kappa)
heavy: not shown
light: AIVMTQPPLSSPVTLGQPASISCRSSQSLVHSDGNTYLNWLQQRPGQPPRLLIYKFFRRLSGVPDRFSGSGAGTDFTLKISRVEAEDVGVYYCMQVTQFPHTFGQGTRLEIKRTVAAPSVFIFPPSDEQLKSGTASVVCLLNNFYPREAKVQWKVDNALQSGNSQESVTEQDSKDSTYSLSSTLTLSKADYEKHKVYACEVTHQGLSSPVTKSFNRGEC
notes: Fully human IgG1 kappa anti-CD40 antibody; Leader residues (1-19 heavy, 1-20 light) left out as stated; also called mAb CHIR-5.9; CHIR-5.9/5.11

Kd [5]: 12 nM | binding result [6]: binds | binding result [7]: binds | binding result [8]: binds | binding result [9]: binds | binding result [10]: no binding | binding result [11]: no binding | binding result [12]: no binding | Kd [13]: 12.2 nM
B2: monoclonal antibody CHIR-5.9 (antibody, human IgG1, kappa)
light: AIVMTQPPLSSPVTLGQPASISCRSSQSLVHSDGNTYLNWLQQRPGQPPRLLIYKFFRRLSGVPDRFSGSGAGTDFTLKISRVEAEDVGVYYCMQVTQFPHTFGQGTRLEIKRTVAAPSVFIFPPSDEQLKSGTASVVCLLNNFYPREAKVQWKVDNALQSGNSQESVTEQDSKDSTYSLSSTLTLSKADYEKHKVYACEVTHQGLSSPVTKSFNRGEC
heavy: not shown
notes: also called mAb 5.9

binding result [14]: binds | binding result [15]: binds | binding result [16]: binds
B3: monoclonal antibody CHIR-5.9 (antibody, human IgG1, kappa)
light: AIVMTQPPLSSPVTLGQPASISCRSSQSLVHSDGNTYLNWLQQRPGQPPRLLIYKFFRRLSGVPDRFSGSGAGTDFTLKISRVEAEDVGVYYCMQVTQFPHTFGQGTRLEIKRTVAAPSVFIFPPSDEQLKSGTASVVCLLNNFYPREAKVQWKVDNALQSGNSQESVTEQDSKDSTYSLSSTLTLSKADYEKHKVYACEVTHQGLSSPVTKSFNRGEC
heavy: not shown
notes: Fully human IgG1 kappa anti-CD40 antibody; also called mAb CHIR-5.9

IC50(nM) for inhibition of CD40L-induced PBMC proliferation; PBMC-025 Donor#1 [17]: 24.2 nM | IC50(nM) for inhibition of CD40L-induced PBMC proliferation; PBMC-025 Donor#2 [17]: 66 nM | IC50(nM) for inhibition of CD40L-induced PBMC proliferation; PBMC-026 Donor#1 [17]: 45 nM | IC50(nM) for inhibition of CD40L-induced PBMC proliferation; PBMC-026 Donor#2 [17]: 84 nM | IC50(nM) for inhibition of CD40L-induced PBMC proliferation; PBMC-028 Donor#1 [17]: 30.1 nM | IC50(nM) for inhibition of CD40L-induced PBMC proliferation; PBMC-028 Donor#2 [17]: 34.7 nM | IC50(nM) for inhibition of CD40L-induced PBMC proliferation; PBMC-029 Donor#1 [17]: 28.1 nM | IC50(nM) for inhibition of CD40L-induced PBMC proliferation; PBMC-029 Donor#2 [17]: 55.4 nM | IC50(nM) for inhibition of CD40L-induced PBMC proliferation; PBMC-030 Donor#1 [17]: 35.5 nM | IC50(nM) for inhibition of CD40L-induced PBMC proliferation; PBMC-030 Donor#2 [17]: 103 nM | IC50(nM) for inhibition of CD40L-induced PBMC proliferation; PBMC-032 Donor#1 [17]: 40.4 nM | average IC50(nM) for inhibition of CD40L-induced PBMC proliferation [17]: 49.6 nM
B4: monoclonal antibody CHIR-12.12 (antibody, human IgG1, kappa)
heavy: not shown
light: DIVMTQSPLSLTVTPGEPASISCRSSQSLLYSNGYNYLDWYLQKPGQSPQVLISLGSNRASGVPDRFSGSGSGTDFTLKISRVEAEDVGVYYCMQARQTPFTFGPGTKVDIRRTVAAPSVFIFPPSDEQLKSGTASVVCLLNNFYPREAKVQWKVDNALQSGNSQESVTEQDSKDSTYSLSSTLTLSKADYEKHKVYACEVTHQGLSSPVTKSFNRGEC

Kd [5]: 0.5 nM | IC50: antibody concentration to inhibit 50% of CD-40 ligand-induced lymphocyte proliferation, average of 6 donors [18]: 47 pM | binding result [6]: binds | binding result [19]: binds | binding result [20]: binds | binding result [21]: binds | binding result [22]: binds | binding result [23]: binds | binding result [10]: no binding | binding result [11]: no binding | binding result [12]: no binding | Kd [13]: 0.51 nM
B5: monoclonal antibody CHIR-12.12 (antibody, human IgG1, kappa)
light: DIVMTQSPLSLTVTPGEPASISCRSSQSLLYSNGYNYLDWYLQKPGQSPQVLISLGSNRASGVPDRFSGSGSGTDFTLKISRVEAEDVGVYYCMQARQTPFTFGPGTKVDIRRTVAAPSVFIFPPSDEQLKSGTASVVCLLNNFYPREAKVQWKVDNALQSGNSQESVTEQDSKDSTYSLSSTLTLSKADYEKHKVYACEVTHQGLSSPVTKSFNRGEC
heavy: not shown

binding result [2]: no binding | binding result [3]: no binding | binding result [4]: no binding | binding result [24]: binds | binding result [25]: binds | binding result [26]: binds | binding result [27]: binds | binding result [28]: binds | binding result [29]: binds
B6: monoclonal antibody CHIR-12.12 (antibody, human IgG1, kappa)
heavy: not shown
light: DIVMTQSPLSLTVTPGEPASISCRSSQSLLYSNGYNYLDWYLQKPGQSPQVLISLGSNRASGVPDRFSGSGSGTDFTLKISRVEAEDVGVYYCMQARQTPFTFGPGTKVDIRRTVAAPSVFIFPPSDEQLKSGTASVVCLLNNFYPREAKVQWKVDNALQSGNSQESVTEQDSKDSTYSLSSTLTLSKADYEKHKVYACEVTHQGLSSPVTKSFNRGEC
notes: Fully human IgG1 kappa anti-CD40 antibody; Leader residues (1-19 heavy, 1-20 light) left out as stated
